{
  "source": "paper PMC6347689",
  "about": "“Native mass spectrometry reveals the conformational diversity of the UVR8 photoreceptor” (Proceedings of the National Academy of Sciences of the …, 2019)",
  "binders": {"B1": {"name": "full-length UVR8 (UV … LOCUS8), Q9FN03 1-440 (natural protein)", "chain": "MAEDMAADEVTAPPRKVLIISAGASHSVALLSGDIVCSWGRGEDGQLGHGDAEDRPSPTQLSALDGHQIVSVTCGADHTVAYSQSGMEVYSWGWGDFGRLGHGNSSDLFTPLPIKALHGIRIKQIACGDSHCLAVTMEGEVQSWGRNQNGQLGLGDTEDSLVPQKIQAFEGIRIKMVAAGAEHTAAVTEDGDLYGWGWGRYGNLGLGDRTDRLVPERVTSTGGEKMSMVACGWRHTISVSYSGALYTYGWSKYGQLGHGDLEDHLIPHKLEALSNSFISQISGGWRHTMALTSDGKLYGWGWNKFGQVGVGNNLDQCSPVQVRFPDDQKVVQVSCGWRHTLAVTERNNVFAWGRGTNGQLGIGESVDRNFPKIIEALSVDGASGQHIESSNIDPSSGKSWVSPAERYAVVPDETGLTDGSSKGNGGDISVPQTDVKRVRI"}, "B2": {"name": "UVR8 core domain (residues 12–381, UVR8^12–381) (domain or fragment, Arabidopsis thaliana, UniProt Q9FN03 12-381, looked up)", "chain": "APPRKVLIISAGASHSVALLSGDIVCSWGRGEDGQLGHGDAEDRPSPTQLSALDGHQIVSVTCGADHTVAYSQSGMEVYSWGWGDFGRLGHGNSSDLFTPLPIKALHGIRIKQIACGDSHCLAVTMEGEVQSWGRNQNGQLGLGDTEDSLVPQKIQAFEGIRIKMVAAGAEHTAAVTEDGDLYGWGWGRYGNLGLGDRTDRLVPERVTSTGGEKMSMVACGWRHTISVSYSGALYTYGWSKYGQLGHGDLEDHLIPHKLEALSNSFISQISGGWRHTMALTSDGKLYGWGWNKFGQVGVGNNLDQCSPVQVRFPDDQKVVQVSCGWRHTLAVTERNNVFAWGRGTNGQLGIGESVDRNFPKIIEALSVDG", "notes": "Homodimer in the dark, monomer after UV-B; also called truncated UVR8; source: E. coli Rosetta 2 (DE3) pLysS, purified (Ni-NTA, Strep-Tactin XT, cleaved from the resin with SUMO protease); not shown: 7xHis, N-terminal, cleaved; Strep II, N-terminal, cleaved; SUMO, N-terminal, cleaved"}},
  "key": {"[1]": {"molecular_target": "T1, full-length UVR8 (UV … LOCUS8) (Arabidopsis thaliana), Q9FN03", "T1 chain": "B1 chain", "assay": "native MS; native ion mobility MS with nESI, sample in 250 mM ammonium acetate pH 6.8, 5–20 μM UVR8, in the absence of UV-B light", "settings": "remark: other sources report otherwise"}, "[2]": {"molecular_target": "the molecule itself", "assay": "native MS; native ion mobility MS with nESI, sample in 250 mM ammonium acetate pH 6.8, 5–20 μM UVR8, in the absence of UV-B light"}},
  "data": [
    {"binder": "B1", "values": [
      {"measurement": "stoichiometry N", "setting": "[1]", "value": 2}
    ]},
    {"binder": "B2", "values": [
      {"measurement": "stoichiometry N", "setting": "[2]", "value": 2}
    ]}
  ]
}
